Experimental findings from paper PMC5825156 are described below.

The target of the assay is SIMx4 probe (fragment of Ring Finger Protein 4 comprising four SIMs) (Rattus norvegicus) (UniProt O88846). Kind of assay: pull-down; lysate of E. coli expressing HA-TbSUMO chains or monomer incubated with His-tagged SIMx4 or mutSIMx4 probe, 50 mM Tris HCl pH 7.6, 150 mM NaCl, 1% NP40, 0.5% deoxycholate, 1.5 h at 4°C; captured on Ni^+2-resin, washed with 250 mM NaCl, eluted with imidazole; Western blot anti-HA, three replicates.

A value given as a limit tells only on which side of the number the result lay.

Sequence of UniProt O88846 (O88846 32-132): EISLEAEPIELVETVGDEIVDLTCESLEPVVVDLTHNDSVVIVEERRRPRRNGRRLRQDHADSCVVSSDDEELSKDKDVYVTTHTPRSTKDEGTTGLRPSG

The substance “HA-TbSUMO chains (poly-SUMO chains of Trypanosoma brucei SUMO made by in bacteria SUMOylation)” yielded a fold pulled down against the mutSIMx4 probe or beads alone of over 3 fold.
